From paper PMC4521584, “MutS/MutL crystal structure reveals that the MutS sliding clamp loads MutL onto DNA” (eLife, 2015)

Target: T1, WT MutS, full length (E. coli, UniProt P23909 1-853)
T1 construct: MutS, E. coli, wild type; also called MutS sliding clamp; source: mutS gene in vector pET-3D; purified as described previously
T1 sequence (looked up): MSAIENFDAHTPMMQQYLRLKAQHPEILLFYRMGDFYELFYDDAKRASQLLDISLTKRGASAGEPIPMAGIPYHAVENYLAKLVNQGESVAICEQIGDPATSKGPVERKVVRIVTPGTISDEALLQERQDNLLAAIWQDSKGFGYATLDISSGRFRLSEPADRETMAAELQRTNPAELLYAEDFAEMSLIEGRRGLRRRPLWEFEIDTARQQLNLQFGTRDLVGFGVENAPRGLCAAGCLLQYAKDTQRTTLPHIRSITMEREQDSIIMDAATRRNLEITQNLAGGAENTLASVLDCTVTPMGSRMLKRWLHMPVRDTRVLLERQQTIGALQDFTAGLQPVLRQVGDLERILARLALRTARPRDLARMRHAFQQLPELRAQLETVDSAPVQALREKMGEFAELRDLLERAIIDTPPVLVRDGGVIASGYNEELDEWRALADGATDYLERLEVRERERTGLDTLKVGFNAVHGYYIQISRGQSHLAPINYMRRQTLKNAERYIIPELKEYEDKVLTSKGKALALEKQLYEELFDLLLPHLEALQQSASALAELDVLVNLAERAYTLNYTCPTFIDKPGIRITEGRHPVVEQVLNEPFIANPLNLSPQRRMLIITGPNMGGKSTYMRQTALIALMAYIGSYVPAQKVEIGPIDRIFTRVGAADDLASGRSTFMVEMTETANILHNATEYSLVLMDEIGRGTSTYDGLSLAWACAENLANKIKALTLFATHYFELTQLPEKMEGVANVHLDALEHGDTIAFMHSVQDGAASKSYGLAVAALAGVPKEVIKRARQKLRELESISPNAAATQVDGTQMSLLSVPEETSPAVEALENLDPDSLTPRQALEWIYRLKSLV
Assay: SPR; two-step: 200 nM MutS with 1 mM ATP trapped as sliding clamps on immobilised, end-blocked 100-bp G:T DNA, then MutL (varying concentrations, 1 mM ATP) injected 120 s; MutS-only signal subtracted; 25 mM Hepes pH 7.5, 150 mM KCl, 5 mM MgCl2, 1 mM DTT, 0.05% TWEEN-20, 20% glycerol; not strictly affinity curves
Settings: both partners purified

B1: WT His6-MutL, full length (natural protein, E. coli, UniProt P23367 1-615, looked up)
chain: MPIQVLPPQLANQIAAGEVVERPASVVKELVENSLDAGATRIDIDIERGGAKLIRIRDNGCGIKKDELALALARHATSKIASLDDLEAIISLGFRGEALASISSVSRLTLTSRTAEQQEAWQAYAEGRDMNVTVKPAAHPVGTTLEVLDLFYNTPARRKFLRTEKTEFNHIDEIIRRIALARFDVTINLSHNGKIVRQYRAVPEGGQKERRLGAICGTAFLEQALAIEWQHGDLTLRGWVADPNHTTPALAEIQYCYVNGRMMRDRLINHAIRQACEDKLGADQQPAFVLYLEIDPHQVDVNVHPAKHEVRFHQSRLVHDFIYQGVLSVLQQQLETPLPLDDEPQPAPRSIPENRVAAGRNHFAEPAAREPVAPRYTPAPASGSRPAAPWPNAQPGYQKQQGEVYRQLLQTPAPMQKLKAPEPQEPALAANSQSFGRVLTIVHSDCALLERDGNISLLSLPVAERWLRQAQLTPGEAPVCAQPLLIPLRLKVSAEEKSALEKAQSALAELGIDFQSDAQHVTIRAVPLPLRQQNLQILIPELIGYLAKQSVFEPGNIAQWIARNLMSEHAQWSMAQAITLLADVERLCPQLVKTPPGGLLQSVDLHPAIKALKDE
notes: MutL, E. coli, wild type; also called WT MutL; WT His-MutL; source: mutL gene in plasmid pTX418; purified as described previously
B1: binds.
